The nature of this data set: soluble on expression in E. coli; label from the status in PepcDB or PDB records.
As to “MGSDKIHHHHHHMKLSDFIKTEDFKKEKHVPVIEAPEKVKKDEKVQIVVTVGKEIPHPNTTEHHIRWIKVFFQPDGDPYVYEVGRYEFNAHGESVQGPNIGAVYTEPTVTTVVKLNRSGTIIALSYCNIHGLWESSQKITVEE”, the “soluble on expression in E. coli” value is listed as “soluble”. For “MGSDKIHHHHHHMKLTAQIHIEKMAYELRDHAHAVIKNVLLMSNISTLSLQLAMRELAQHSRVALHFHPDQIDNRGLTVVDGLLRDGVYKSQFETHVSNGHLSPELGGSRDHWENQLFGHSYSGIKHRPKYGALDFGLCPLGPAPRFGSCYLVTHPQILSRCTFSYMDSHRLPKEKGTIKCFDAILAALLSESFERQYALGVSGLKPSKLIEHFSQHLTDDISRRFDLVPSGNLDHYIEAQIHGDVSLDQDIAILVADPSYMGTAIGDSLIALCHEYGIELHWHQGRQINVAQIPDDFRGAAMPILAQSLAENELINAEIIGRAAYQLQKQPASWSERGAHSKKRQDLKLLWHVLVKYGESTGQ” the value was “not soluble”; for “MGSDKIHHHHHHMKLTIAGDSHGKYMVAILEGLPSGIRVDEELIRRDLFRRRNCYGRGKRMKMEEDAFEIVSGLWKGITTGAPVTILIPNRAGNPVKDVRSVPRPGHIDYAAWVKYKLPDLNIYVERSSARWTVALTAAGSLLKSLLKEFGIEVLGFVTRLGNVEARDIPGDFEELKRRRDESVVFCPDPEATKEMVAEIDRAKEEGNTLGGKVKVIARGVPAGIGSYSDLFKKLDSKIGSLFFAIPAVKGVVIGSEEMWYGFDYLDEFELEDGKIKRKTNNLGGIEGGITNGEDVWVNVSVKPIPTTGKPLKSVDLRTMEPAKTPYVRSDVTAVPPASVVCEAALAVVISDALLEHLGDGNIDDLKRRFENENLPRWNDGFWKEHYR”, “not soluble”; for “MGSDKIHHHHHHMKLVSLRLEEGLIEKIDEVARKTLQSRSEIIRSSIALYLSLLENIGFYFKPSLPMKNVDVYEERNAVNVDLGNLTSVSVLSVSYGGVGELELDFRKDLGFVAEVMANQVAVETCCRFITPLLVMLTSTCEFLYTHTFFRMFSEAIRERMKVRTMLAGYEEFFETKQSGFVATVVGLRDMSTRNSPRRGDRIYFFGNAVSGAELSEEELLDMADVERLVGLVKEGKASAIFPVKSGGLKEVADYAAALAGGKAMLFEKRGGCPATAIVLTSAEDLSGYGCELVGEIL”, “not soluble”. For “MGSDKIHHHHHHMKLYVSFAARIRAMIDEGVLRPGDKIFSVRQASQKYGLSISTVLRGYLLLEQEGIISSHPQSGYYVTPRKRLQRHETSPLSKDINLSEVDASKLVLTTLKSIREFGTVPLGSPFPDPQLFPLKKIHQYEKALTDDEGEWGVLSDLPPGNEMLRQQIARRYLANGMDVSPDDIVITHGATEAITLCLQAVAKAGDVIALESPGYYALAHTVERLGMKVAELRTDPDSGIDLDALRATAGNVRIAAVILTANFQNPLGFVMPDAKKQALVAFLEEQQIPLIEDDVYGELYFSETAPKPAKAFDRSGLVLHCASFSKSLAPGYRVGWTVAGRYRQEVERLMFLNSLSMPSAPQIAIAKFMQRDSFERHLKQLRHTLRSQYVLIRNVIEESFPAGTQLSAPKGGYVIWVNLPAPLDALKLYRAAIDNGITVAPGTIFSRKKDLTHYIRLNFSHLWTLAIEQAVRQVGALACGMLADAGNGEA” the value was “not soluble”; for “MGSDKIHHHHHHMKMNIPVIFQFLKDLSANNNREWFNEHRSEYEVARAEFDNFLATVIARISLFDETIRGIQPKDCTYRIYRDTRFSADKTPYKIHFGGYINAKGKKSDHCGYYVHLQPDGSMLAGGSLCLPPNVLKAVRQAIYDNVEEYISIVEDPEFKKYFPVVGEDFMKTAPKGFPKDFKYIDYLKCRQFVCSYLVPDDFFTRADMMEQIEKAFRQFKRFADFINYTIDDFE”, “not soluble”; for “MGSDKIHHHHHHMKNNRINIHSQQYMETMARLMSEALESPEGMRALAAAIAAPIEQEIKRKEISSLLLTRHTLPKGERPIYQKKPTVKAHWISKDGEAQEQELGKDEVEFPTNRIHSNPMVDISVLKHGNIGTLMDIQTGAASSIRKEMDSRTITVISSAIPAANTVEVTGDKVTEEALNEAISIIEDLELSVKYIVLRGRRFNDMRSWNLDPQTKLELRQKGVIKNYGTGGILLTAAMPMDEIIIVPDEEVGKLPVRENLKTESIDQKTRFKTGWLVWSEIGQGITRPDILAKVKLVP”, “not soluble”. For “MGSDKIHHHHHHMKNTPIERNVIDETINEFQIVDFSKATIREVKAIASKAEAVSGVEFIKMEMGVPGLPASAVGVKAEIEALQNGIASLYPDINGLPELKKEASDFIKAFINVDLSPEGCVPVTGSMQGTFASFLTCSQCDEKKDTILFIDPGFPVQKQQLVVMGQKYETFDVYDYRGDKLKEKLESYLRKGNISAIIYSNPNNPSWICLKDEELRIIGELATQYDVIVLEDLAYFAMDFRQDLSTPYQAPFQPSVAHYTDNYVLLISGSKAFSYAGQRIGVSCISDKLYHRSYPGLTKRYGGGTFGTVFIHRVLYALSSGTSHSAQYAMAAMLKAANEGQYNFLSEVKVYGDRAQKLKEIFLRHGFYLVYDNDLGDPIADGFYFTIGYPGMTSGELAKELMYYGVSAISLVTTGSHQEGLRACTSFIKDHQYAQLDERMKLFAEHHPIA” the value was “not soluble”; for “MGSDKIHHHHHHMKQEVKGVQGQEYEIGLTVGDNRSDIFTFVISPESQIRKWEYVYIKAGETNLLGRIEDLLSKSDLLNDRMDYESVKKYTTSNIKDNVDICVVKIIGAVKDGIISRSRYLIRPGQPVFRATKEMLESIFKFDDQRSLEIGYLADQPDVKIFANINGLRRHLSIIAQTGAGKSHTAGVLMEELLKKGASIIVLDPHADYVLMKNSDKAIYRDNIKVFRTPMSTGRYTAKLGKVDEFTIKFQDLNDEEVREIMGIHENFVNQSKIVKDVMEKLTGRKDVDEFIQKSEQIDTEKRIAARIKYLKKIKAIFGDKTTDVSEYLAPSRMSVIDLSGLDQSLANYFAYKVISQAYDAKVTGSFEYPVFLFIEEAHNFAPPMKVKGSGVSQMLYDTIKKIAAEGRKFGIFLVIITQRPGKIDQDVLSQCNSQIILRITNPSDQKAILESSENISESLMSDLPSLDVGEAIIVGEIVKMPVIAKIRQRETEEGGLDVDIVEMLQKARMEAEKRNDPRAIVENVKKLME”, “not soluble”; for “MGSDKIHHHHHHMKQGSLFENSQRNTPLASRVRPQTLDQFVGQAHLLGPGKILRELIENDQVSSMIFWGPPGVGKTTLAEIIARQTQATFLSFSAVDSSISKIKKIMHQAEADREIGEQTIVFVDEIHRFNKAQQDAFLPYVERGSIILIGATTENPSFEVNSALLSRCKVFVLKALATADIDQLLRNALTNPAGFSGRVTIGDAELRAIAEFANGDARMALNTLEMAVLNGDKQGDQVTVTQADLKQLITQKFVLYDKTGEEHYNIISALHKSMRNSDPDAAIYWLTRMLSGGEDPLYVARRLVRFASEDIGLADTNALNVAINVFQACQFLGMPECNVHLVEAVTYLSLAPKSNAIYKASQAAQKDVQQTRDEPVPLQLRNAPTKLMKDLGYGADYQYAHESAAKLTTMQTLPEALRGHVYYEPTEQGREGRFKARLAEIKRWQQQHRD”, “not soluble”. For the sequence “MGSDKIHHHHHHMKQTDVVVIGSGVGGLSCAALLARYGFDVTVCESHSIPGGAAHGFERQGFKFDSGPSLYSGLSYSPSVNPLRQVLDAVGVDLPCVTYDTWGCCLPEGDFDAAVGAEQFCEVLGRLRGEAAVAEWRRLQQVMTPLAQAAIALPPAALRWDIGAALTIGRFAPTLAKQSANFFKLTGPFSRIMDGVVHDPFISNWLNLLCFLLSGLPASGTNAAEVAFMFADWYRPGVALDYPIGGSGALVNALVEGFKKHGGELLLHTHVEQVLVEGNKAAGVRLGDGQEIRARRAVVSNASVWDTLKLLPEGAVSQKFRSQRQATPECDSFMHLHLGINAQGLPPDLACHYIVVNDWELEITAPQNVILVSIPSILDPSLAPQGKHVIHVYTPGNEPYTLWQGMDRRSQEYEQQKRSRAEVMWQAVERIIPDIRSRCEIQLVGTPLTHERFLRRYRGSYGPAISAASGLFPGHGTPLPGLMCCGDSTFPGIGLPAVAASGMIVANTLAPVSQHLAMLDRVGL”, the “soluble on expression in E. coli” value is “not soluble”.

Source of the values: the DeepSol protein solubility set.
